In patent US20100316648A1 (published 2010):
Values belong to the molecule of their own block, whether it stands above or below them. Ends that are not written are not given here.

B1: Plasminogen (ligand, UniProt P00747 20-810, looked up)
chain: EPLDDYVNTQGASLFSVTKKQLGAGSIEECAAKCEEDEEFTCRAFQYHSKEQQCVIMAENRKSSIIIRMRDVVLFEKKVYLSECKTGNGKNYRGTMSKTKNGITCQKWSSTSPHRPRFSPATHPSEGLEENYCRNPDNDPQGPWCYTTDPEKRYDYCDILECEEECMHCSGENYDGKISKTMSGLECQAWDSQSPHAHGYIPSKFPNKNLKKNYCRNPDRELRPWCFTTDPNKRWELCDIPRCTTPPPSSGPTYQCLKGTGENYRGNVAVTVSGHTCQHWSAQTPHTHNRTPENFPCKNLDENYCRNPDGKRAPWCHTTNSQVRWEYCKIPSCDSSPVSTEQLAPTAPPELTPVVQDCYHGDGQSYRGTSSTTTTGKKCQSWSSMTPHRHQKTPENYPNAGLTMNYCRNPDADKGPWCFTTDPSVRWEYCNLKKCSGTEASVVAPPPVVLLPDVETPSEEDCMFGNGKGYRGKRATTVTGTPCQDWAAQEPHRHSIFTPETNPRAGLEKNYCRNPDGDVGGPWCYTTNPRKLYDYCDVPQCAAPSFDCGKPQVEPKKCPGRVVGGCVAHPHSWPWQVSLRTRFGMHFCGGTLISPEWVLTAAHCLEKSPRPSSYKVILGAHQEVNLEPHVQEIEVSRLFLEPTRKDIALLKLSSPAVITDKVIPACLPSPNYVVADRTECFITGWGETQGTFGAGLLKEAQLPVIENKVCNRYEFLNGRVQSTELCAGHLAGGTDSCQGDSGGPLVCFEKDKYILQGVTSWGLGCARPNKPGVYVRVSRFVTWIEGVMRNN
modifications: directly biotinylated in the assays of Examples 7-9; coupled to Sepharose in Example 1
notes: The same entry is used for unlabelled, biotinylated and Sepharose-coupled plasminogen; also called Plg; biotinylated plasminogen
B3: Plg-RKT carboxyl-terminal peptide CEQSKLFSDK (SEQ ID NO: 33) (peptide)
peptide: CEQSKLFSDK
modifications: also: coupled to bovine serum albumin (BSA), attachment site not given here
notes: also called C-terminal peptide of mouse Plg-RKT; Plg-RKT polypeptide

How the values were obtained:
Plasminogen [1] = molecular target: B1; assay: ELISA, detection control: plasminogen bound to BSA-coupled peptide, isotype control instead of anti-plasminogen MAb
[2] = molecular target: B3; assay: ELISA on BSA-coupled peptide, anti-plasminogen MAb detection
Excerpt: Our isolation method was consistent with exposure of the carboxyl-terminus of Plg-RKT (with its carboxyl-terminal lysine) on the cell surface and also with the ability of the carboxyl-terminal domain to bind to plasminogen. For verification, we tested whether a synthetic peptide, corresponding to the C-terminus of Plg-RKT could bind plasminogen. The peptide, […] (SEQ ID NO: 33) corresponding to the ten C-terminal amino acids of Plg-RKT with cysteine substituted for R₁₃₈) was coupled to bovine serum albumin (BSA) and then coated onto wells of microtiter plates at 10 μg/ml. The wells were blocked with 5% BSA. Plasminogen (0.2 μM) was incubated with the wells, followed by our anti-plasminogen MAb ³⁶ and detection with HRP-conjugated goat anti-mouse IgG (Biosource, Camarillo, Calif.). Plasminogen bound to the peptide in a concentration dependent manner with 50% maximal binding achieved at a plasminogen concentration of ˜10 nM. The binding was specific because it was blocked in the presence of epsilon-aminocaproic acid (EACA), consistent with the ability of EACA to inhibit plasminogen binding to differentiated Hoxa9-ER4 cells. […] In controls for the detection method, O.D.₄₉₀ values obtained using an isotype control antibody or in the absence of added plasminogen were <5% of the values for plasminogen binding to the BSA-coupled peptide detected with anti-plasminogen MAb.

Plasminogen [3] = molecular target: B1; assay: competition ELISA, soluble peptide against biotinylated plasminogen on immobilized …-BSA
plasminogen fragment K4 = molecular target: T1, plasminogen fragment K4 (UniProt P00747 374-459); assay: competition ELISA against biotinylated plasminogen on immobilized peptide
T1 construct: range 354-439
T1 sequence (looked up): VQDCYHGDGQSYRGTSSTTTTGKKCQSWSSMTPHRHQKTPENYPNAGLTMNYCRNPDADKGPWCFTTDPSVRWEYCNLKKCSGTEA
Method: (§1) 9. Recognition of Plg-RKT by Plasminogen Fragments in Other Assays to Define the ligand recognition specificity of Plg-RKT for plasminogen. the Plg-RKT polypeptide, […] (SEQ ID NO: 33), was coupled to microtiter wells. Plasminogen was directly biotinylated and then incubated with the immobilized peptide and detected with streptavidin-HRP, as above. (Plasminogen bound to the peptide in a concentration-dependent manner. In controls for specificity, biotinylated-Plg binding was competed by unlabeled Plg and no biotinylated-Plg binding to the reverse peptide was detected.) Plasminogen domains containing disulfide bonded kringle (K) structures were obtained by elastase digestion as described ³⁹. (K1-3 is comprised of the plasminogen amino acid sequences, Tyr⁷⁹-Val³³⁷ or Tyr⁷⁹-Val³⁵³. K4 is contained within the plasminogen amino acid sequences, Val³⁵⁴-Ala⁴³⁹. K5-PD is contained within the plasminogen amino acid sequences, Val⁴⁴²-Asn⁷⁹⁰ and contains kringle 5 as well as the latent protease domain.)

[4] = molecular target: T2, plasminogen fragment K1-3 (UniProt P00747 99-357); assay: as above
T2 construct: range 79-337 or 79-353; it may not count on the precursor entry
Method: as §1

Molecule: B1
EC50 [2]: ~10 nM

Molecule: B3
binding result (plasminogen fragment K4): binds | binding result [4]: binds

Results, then the molecule that gave them:

O.D.490 as percent of the value with anti-plasminogen MAb (Plasminogen [1]): < 5%
Molecule: isotype control antibody (Example 4)

IC50 (Plasminogen [3]): 1000 nM
B2: peptide CEQSRFFIDK (SEQ ID NO: 34), corresponding to the C terminus of human Plg-RKT (peptide)
peptide: CEQSRFFIDK
notes: also called wild type peptide
